The data set can be described thus: yeast display, Sf9 membrane polyspecificity reagent, FACS + sequencing; frameworks hold sequencing errors. The gist of the method: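 Nanobodies came from a synthetic yeast display library in Saccharomyces cerevisiae BJ5465, induced with galactose for 36–48 hours and stained for 1 hour at 4 °C with 10% biotinylated, detergent-solubilized Sf9 membrane reagent. Cells were enriched on streptavidin microbeads and then FACS-sorted, with low and high (top ~1%) gates set on anti-HA fluorescence for expression and streptavidin fluorescence for reagent binding. Each polyreactivity label reflects the gate a clone came from. Genes were amplified by colony PCR, sequenced by MiSeq 2 × 250 and filtered by CDR length.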
Take “QVQLVESRGGLVQAGGSLRLSCAASGYTFQRYAMGCYRQAPGKEREMVAAISWSSGTTYYADSVKGRFTISRDNAKNTVYLQMNSLKPEDTAVYYCAAAGRQSGGRFYYWGQGTQVTVSS”: the “polyreactivity (PSR sort gate)” value is recorded as “high polyreactivity”.

“QVQLVESRGGLVQAGGSLRLSCAASVGTFGLNAMGWYSQAPGKERELVADIDGRGGSTYYADSVKGRFTISRDNAKNTFDLQMNSLKPEDTAVYYSAARAPFLSVPSELDYWGQGTQVTVSS”: the “polyreactivity (PSR sort gate)” value is “low polyreactivity”.

In the case of “QVQLVESRGGLVQAGGSLRLSCDASGSTIFENVMGWYRQAPGKEREFVAAINTSGGSTYYADSVKGRFTISRDNAKNTVYLQMNSLKPEDTAVYYCARDSYWEMDYWGQGTQVTVSS”, the “polyreactivity (PSR sort gate)” value was “low polyreactivity”.

With “QVQLVESRGGLVQAGGSLRLSCPASGSTFVSNAMGWYRQAPGKERELVAAISKSGGSTYYADSVKGRFTISRDNAKNTVYLQMISLKPEDTAVYYCAKYNAKSFYGQYDYWGQGTQVTVSS”, the “polyreactivity (PSR sort gate)” value is “high polyreactivity”.

“QVQLVESRGGLVQAGGSLRLSFAASGFTFGSYSMVWYRQAPGKERELVADITRRGDNTYYADSVKGRFTISRDNAKNTVYLQMNSLKPEDSAVYYCNAAKGGRYPDYDYWGQGTQVTVSS”: the “polyreactivity (PSR sort gate)” value is “high polyreactivity”.

Regarding “QVQLVESRGGLVQAGGSLRLSFAASGSTFIKNAMGWYRQAPGKEWELVAAITSGGSRSYADSVKGRFTISRDNAKNTVYLQMNSLKPEDTAVYYCATDHDIGYNFYRYDYWGQGTQVTVSS”, the “polyreactivity (PSR sort gate)” value is recorded as “low polyreactivity”.

Take “QVQLVESRGGLVQAGGSLRLSSASSGSIFDIYEMGRYRQAPGKERELLASITWSRGSTYYADSVKGRFTISRDNAKNSVYLQINCLKPEDTAVYYCGTDKLFGRTVRMDYWGQGTQVTVSS”: the “polyreactivity (PSR sort gate)” value is “low polyreactivity”.

“QVQLVESRGGLVQAGGSLRLTCAASGYTFVYNGMGWYRQAPGKERELVAAFRRRTGTTYYADSVKGRFTISRDNAKNTVYLQMNSLKPEDSSVYYSAATGFWCYDWGQGSQVTVSS”: the “polyreactivity (PSR sort gate)” value is given as “high polyreactivity”.

Take “QVQLVESRGGLVQAGGSLRVSCAASGRTFGVNAMGWYRQAPGKERELVAAISTSGGSTYYADSVKGRFTISRDNAKNTVYLQMNSLIPEDTAVYYCNTGRGRYVHGRDYDYWGQGTQVTVSS”: the “polyreactivity (PSR sort gate)” value is “low polyreactivity”.

As to “QVQLVESRGGLVQARGSLRLSSAASGFIFNANAMGCYRPAPGKESELVAAIDDGDSTYADSVKGRFTISRDNAKNTVYLQMNSLKPEDTAVYYCAVDGGEFSSYGYWGEGTQVTVSS”, the “polyreactivity (PSR sort gate)” value is listed as “low polyreactivity”.

As for “QVQLVESRGGSVQAGGSLRLSCAASGNIFYYAMGWYRQAPGKERELVAAISASGGSSYYADSVKGRFTISRDNAKNTVYLQMNSLKPEDTAVYYCKAVFYRGPGAQGDPRRRSDYWGQGTQVTVSS”, the “polyreactivity (PSR sort gate)” value is on record as “high polyreactivity”.

Regarding “QVQLVESRGVLVQAGGSVRVSCAASGSTFTFNAMGWYRQAPGKVRELVADITSGGRTNYADSVKGRFTISRDNAKNTVYLQMNSLKPEDTAVYYCAARWWAHEYPGYDSWGQGTQVTVSS”, the “polyreactivity (PSR sort gate)” value is reported as “low polyreactivity”.

For “QVQLVESRRGLVQAGGSLRLSCAASGRISNEYAMVWSRQAPGKERELVATITFSGGDTYYADSVKGRFTISRHNAKNTVYLHKNSLKPEDSAVYYCAASKWRSYCGGWWRLQFDYWGQGTQVTVSS”, the “polyreactivity (PSR sort gate)” value was “low polyreactivity”.

For “QVQLVESSGGLVQAGGSLRLSCAASGFNFKRYAMGWSRQAPGKEREMVAAINSGGSTNYADSVKGRFTISRDNAKNTVYLQMNSLKPEDTAVYYCAASTSRYYWYALRDYWGQGTQVTVSS”, the “polyreactivity (PSR sort gate)” value was “high polyreactivity”.

On to “QVQLVESSGGLVQAGGSLRLSCAASGITFYYYAMGWYRQAPGKERELVAVITGNGGRTYYADSVKGRFTISRDNAKNTVYLQMNSLKPEDTAVYYCAALYDGIYDSWGQGTQVTVSS”, for which the “polyreactivity (PSR sort gate)” value is given as “high polyreactivity”.

Take “QVQLVESVAGLVQAGGSLRLSCAASGSTFTGNAMGWYRQAPRKERELVAAITKGGSRTYYADSVKGRFTISRDNAKNTVYLQMNSLKPEDTAVYYCAAIERYSYLLYPKFDYWGQGTQVTVSS”: the “polyreactivity (PSR sort gate)” value is “high polyreactivity”.

On to “QVQLVESVGALVQAGGSLRLSCAASGSIFGSNAMGGYRQAPGKERELVAAITWSGTSTYYADSVKGRFTISRDNAKNTVYLQMNSLKPEDTAVYYCARGGYVRAARLVIPYYYWGQGTQVTVSS”, for which the “polyreactivity (PSR sort gate)” value was “low polyreactivity”.

With “QVQLVESVGCLVQARGSLRLSSAASGLIFPKYAMGWYRPAHGKERELVAAISSSGGSTYYADSVMGRFTISRVNAKNTVYLQMNSLKPEDTAVYYCAAKRFTTVTGYGYWGQGTQVTVSS”, the “polyreactivity (PSR sort gate)” value was “high polyreactivity”.

In the case of “QVQLVESVGGIVQAGGSLRLSCAASGITLYWYAMGWYRQAPGKERELVAAISRRGGTTYYADSVKGRFTISRDNAKINVFLQMHSLNPEDTAVYYCAKAPDTQTSWSRQEGTYWGQGTQVTVSS”, the “polyreactivity (PSR sort gate)” value is reported as “low polyreactivity”.

For “QVQLVESVGGLAQSRGSLRLSCAASGRTFFPNAMGWYRQAPGKERELVAAITNGDSTHYADSVKRRFTISRDNAKNTVYLQMNSLKPEDTADYYCAAEDHYEGYGGYYWGQVTQVTVSS”, the “polyreactivity (PSR sort gate)” value is reported as “low polyreactivity”.

“QVQLVESVGGLDQAGGSLRLSCAASGSTFSLYTIGWYRQAPGKERELVASISRGGGSTYYADSVKGRFTISRDNAKNTVYLQMNSLKPEDTAVYYCASGTLYFYSHNPEDDFDYWGQGTQVTVSS”: the “polyreactivity (PSR sort gate)” value is listed as “high polyreactivity”.

Consider “QVQLVESVGGLDQAGGSLRLSCAASGYTFSLNAMGWYRQAPGKEREFVATIRSSGARTSYADSVKGRFTISRDNAKNTVYLQMNSLKPEDTAVYYCAARYYNSYRYAMGYWGQGTQVTVSS”, for which the “polyreactivity (PSR sort gate)” value is listed as “high polyreactivity”.

Take “QVQLVESVGGLDQAGGSLRLSGAASGSIFAHYAMGWYRQAPGKETELVARISWSGGSTYYADSVKGRFTISRDNAKNTVYLQMNSLKPEDTAVYYCARAGRSWDTLYKYYLEHDYWGQGTQETVSS”: the “polyreactivity (PSR sort gate)” value is “low polyreactivity”.

On to “QVQLVESVGGLDQAGVSLRLSCPASVRTLSKNSMGWYRQAPGKARELVATISSVGRTNYAVSVKGRFTISRDNAKNTVYLQMKSLKREDTAVYYCDARRFRGSYYWGLGTQVTVSS”, for which the “polyreactivity (PSR sort gate)” value is “high polyreactivity”.

Regarding “QVQLVESVGGLLQAGGRLRLSCAASGSTFGKYVMGWYRPAPGTERELVAAISLSGGSTYYADSVKGRFTISRDNAKNTVYLQMNCRKPEDTALNYCATVGYGYDYWGQATQVTVSS”, the “polyreactivity (PSR sort gate)” value is “high polyreactivity”.

Take “QVQLVESVGGLLQAGGSLRLSCAASGRIFTGYAMGWYRQAPGKERELVAAISSRGGSTYYADSVKGRFTISRDNAKNTVYLQMNSLKPEDTAVYYCNAYQWRHRYTMYYWGQGTQVTVSS”: the “polyreactivity (PSR sort gate)” value is given as “high polyreactivity”.

Consider “QVQLVESVGGLVEAGGRLGISCDDSGIIFRVNTIGCYRQAPGKERELVARSTGAGNKYYADSVKGRFTISRDNAKTTVYLQMNSLKPKDTAVYYCAVREFDNRRVIFYYWGQGTQVTVLS”, for which the “polyreactivity (PSR sort gate)” value is “high polyreactivity”.

In the case of “QVQLVESVGGLVQAGASLRLSCAASGRTFATYAKGWYRQAPGKERELVAAISRSGGSTYYADSVKGRFTISRDNAKNTVYLQMHSLKPEDTAGYYCAARYVRQYYRAEDYWGQGTQVTVSS”, the “polyreactivity (PSR sort gate)” value is “high polyreactivity”.

For the sequence “QVQLVESVGGLVQAGASLRLTCAASGSIFWYAMGWYRQAPRQERELVAGISRGGSTYYADSVKGRFTISRDNAKNTVYLQMNSLKPEDTAVYYCNTAGYYGTPSNYWGQGTQVTVSS”, the “polyreactivity (PSR sort gate)” value is listed as “low polyreactivity”.

Take “QVQLVESVGGLVQAGGILRLSCAPSGSTFDVYAMGWYRQAPAKERELVAAISWTGGSTYYADSVKGRFTISRDNAKNTVYLQMNRLKPEDTAVYYCAAYEIQTPRIAHYVGCGRDYLGQGTQVTVSS”: the “polyreactivity (PSR sort gate)” value is given as “high polyreactivity”.

Take “QVQLVESVGGLVQAGGRLRLSCAASGITFEPYAMGWYRPAPGKEREFVADITWSGGSTYYADSVKGRFTISRDNAKNTVYLQMNSLKPEDTAVYYCAADGWTSYWSDYWGQGTQVTVSS”: the “polyreactivity (PSR sort gate)” value was “low polyreactivity”.

Take “QVQLVESVGGLVQAGGSLPLSCDASGSIFFYYAMGWSRHAPGKESELVAAIDFNGGTTYYADSVKGRFTISRDTAKITVYLQMNSLTPEDTAVYYCAAEWEGTYSTVPDEFNYWGQGTQVTVSS”: the “polyreactivity (PSR sort gate)” value is listed as “high polyreactivity”.

“QVQLVESVGGLVQAGGSLRISCAASGFIFKSYSMGWYRQAPGKERELVAAISWIGGRTYYADSVKGRFTISRDNAKYTVYLQMNSLKPEDTAVYYCAKVVKYQSGGGLEYWGQGTQVTVSS”: the “polyreactivity (PSR sort gate)” value is “high polyreactivity”.

For “QVQLVESVGGLVQAGGSLRISCAASGRIFYNYAMGRYRQAPGKERELVAAISGSGGSTYYADSVKGRFTISRDIAKNTVYLQMNSLIPEDTAVFYCSTSGPQYYSRNFDYWGQGTQVTVSS”, the “polyreactivity (PSR sort gate)” value is on record as “low polyreactivity”.

Turning to “QVQLVESVGGLVQAGGSLRLICAASGSIFSPYAMGWYRQAPGKERELVAAINFNGGTTYYADSVKGRFTISRDNAKNTVDLQMNSLKPEDTAVYYCAADEVPGFGYPPYPWFDYWGQGTQVTVSS”, the “polyreactivity (PSR sort gate)” value is reported as “low polyreactivity”.

As for “QVQLVESVGGLVQAGGSLRLSCAASGFIFAFYAMGWYRQAPGKESELVAAIRTGGSTNYADSVKGRFTISRDNAKNTVYLQMNSLKPEDTAVYYCAAYGRGGYWRWERDYWGLGTQVTVSS”, the “polyreactivity (PSR sort gate)” value is reported as “high polyreactivity”.

For the sequence “QVQLVESVGGLVQAGGSLRLSCAASGFIFNPYAMGWYRQAPGKERELVAAISWRGASTYYADSVKGRFTISRDNAKNTVYLQMNSLNPEDTAVYYCAADLAYSSTASDYEYWGQGTQVTVSS”, the “polyreactivity (PSR sort gate)” value is given as “low polyreactivity”.

Consider “QVQLVESVGGLVQAGGSLRLSCAASGFIFSYYAMGGYRQAPGKERELVAAISKTGGNTYYADSVKGRFTISRDNAKNTVYLQMNSLKPEDSAVYYCNALRGDWRDMGYWGQGTQVTVSS”, for which the “polyreactivity (PSR sort gate)” value is reported as “high polyreactivity”.

On to “QVQLVESVGGLVQAGGSLRLSCAASGFIFYWYAMGWYRQAPGKERELVAAITRSGGRTYYADSVKGRFTISRDNAKNTVYLQMNSLKPEDTAVYYCNAGYWLSPYKFGYWGQGTQVTVSS”, for which the “polyreactivity (PSR sort gate)” value is on record as “high polyreactivity”.

Turning to “QVQLVESVGGLVQAGGSLRLSCAASGFNFRVYPMGWYRPAPRKERELVAAISVSGGSTTYADSVNGRFTISRDNAKNTVYLQMNSLKPEDTAVYYCAADYDFFSLYLYDYWGQGTQVTVSS”, the “polyreactivity (PSR sort gate)” value was “low polyreactivity”.

In the case of “QVQLVESVGGLVQAGGSLRLSCAASGFTFASNAMGWYRQAPGKERELVAAISRSGGSTFYADSVKGRFTISRDNAKNTVYLQMNSLKPEDTAVYYCAADIWRVYSTFYYWGQGTQVTVSS”, the “polyreactivity (PSR sort gate)” value is given as “low polyreactivity”.
